Laboratory results published in publication PMC8373988 (2021).

Target: biotinylated-AviTag-haBiP^T229A-V461F (residues 27–635), unmodified (Chinese hamster, UniProt G3I8R9 27-635, T229A | V461F, biotin on the N-terminal Avi-tag)
Assay: BLI; ATP-bound BiP

Sequence of biotinylated-AviTag-haBiP^T229A-V461F (residues 27–635), unmodified (G3I8R9 27-635 T229A/V461F): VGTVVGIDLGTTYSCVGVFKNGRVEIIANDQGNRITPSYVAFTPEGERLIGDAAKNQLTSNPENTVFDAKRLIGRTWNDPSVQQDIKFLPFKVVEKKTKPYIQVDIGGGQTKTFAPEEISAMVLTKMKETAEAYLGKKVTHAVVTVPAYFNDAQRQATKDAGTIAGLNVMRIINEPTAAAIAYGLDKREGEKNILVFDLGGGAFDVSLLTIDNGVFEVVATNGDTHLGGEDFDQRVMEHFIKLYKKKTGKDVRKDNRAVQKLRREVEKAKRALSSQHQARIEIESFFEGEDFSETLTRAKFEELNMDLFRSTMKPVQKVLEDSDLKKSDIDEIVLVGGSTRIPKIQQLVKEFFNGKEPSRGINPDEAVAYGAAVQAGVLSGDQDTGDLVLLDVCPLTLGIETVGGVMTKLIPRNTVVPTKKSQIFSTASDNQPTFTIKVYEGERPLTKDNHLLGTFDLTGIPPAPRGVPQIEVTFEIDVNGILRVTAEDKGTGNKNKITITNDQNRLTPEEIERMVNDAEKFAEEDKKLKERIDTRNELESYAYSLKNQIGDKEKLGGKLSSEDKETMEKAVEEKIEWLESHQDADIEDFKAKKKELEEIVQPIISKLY

- koff: 0.176 s⁻¹
B1: isolated TPR domain of FICD (domain or fragment)
chain: LEARAALNQALEMKRQGKREKAQKLFMHALKMDPDFVDALTEFGIFSEEDKDIIQADYLYTRALTISPYH
